Source: patent publication US11352401

Each binder was assayed against T1, HLA-A*01 (human) (assay: UV peptide-exchange ELISA; ++++ = yield >75%).
T1 construct: MHC monomer made peptide-receptive by UV cleavage of a UV-sensitive ligand; also called peptide-receptive MHC class I monomer
From the text: Candidate peptides for T cell based therapies according to the present invention were further tested for their MHC binding capacity (affinity). The individual peptide-MHC complexes were produced by UV-ligand exchange, where a UV-sensitive peptide is cleaved upon UV-irradiation, and exchanged with the peptide of interest as analyzed. Only peptide candidates that can effectively bind and stabilize the peptide-receptive MHC molecules prevent dissociation of the MHC complexes. To determine the yield of the exchange reaction, an ELISA was performed based on the detection of the light chain (β2m) of stabilized MHC complexes. The assay was performed as generally described in Rodenko et al. (Rodenko et al., 2006).
96 well MAXISorp plates (NUNC) were coated over night with 2 ug/ml streptavidin in PBS at room temperature, washed 4× and blocked for 1 h at 37° C. in 2% BSA containing blocking buffer. […] Peptide-MHC monomers of the UV-exchange reaction were diluted 100-fold in blocking buffer. Samples were incubated for 1 h at 37° C., washed four times, incubated with 2 ug/ml HRP conjugated anti-β2m for 1h at 37° C., washed again and detected with TMB solution that is stopped with […]. Absorption was measured at 450 nm.

peptide exchange yield [%] | Binder
> 75 | FSDNDKLYLY [FSDNDKLYLY (SEQ ID NO: 407)]
> 75 | NTEGLHHLY [NTEGLHHLY (SEQ ID NO: 430)]
> 75 | LLEDKHFQSY [LLEDKHFQSY (SEQ ID NO: 417)]
> 75 | STDGKHWWEY [STDGKHWWEY (SEQ ID NO: 437)]
> 75 | FVDPLVTNY [FVDPLVTNY (SEQ ID NO: 409)]
> 75 | NSDEQKITEMVY [NSDEQKITEMVY (SEQ ID NO: 427)]
> 75 | QTETGTPYMLY [QTETGTPYMLY (SEQ ID NO: 436)]
> 75 | NTEDSSMSGYLY [NTEDSSMSGYLY (SEQ ID NO: 429)]
> 75 | LTEDKETLQY [LTEDKETLQY (SEQ ID NO: 420)]
> 75 | LSELKPMSY [LSELKPMSY (SEQ ID NO: 419)]
> 75 | VTAQVVGTERY [VTAQVVGTERY (SEQ ID NO: 446)]
> 75 | GTVYEDLRY [GTVYEDLRY (SEQ ID NO: 411)]
> 75 | QTDCAPNNGY [QTDCAPNNGY (SEQ ID NO: 434)]
> 75 | LLDTAQKNLY [LLDTAQKNLY (SEQ ID NO: 416)]

Second part, the binder before the results:

Binder | peptide exchange yield [%]
YLDRGTGNVSFY [YLDRGTGNVSFY (SEQ ID NO: 449)] | > 75
QTDDTWRTEY [QTDDTWRTEY (SEQ ID NO: 435)] | > 75
NLDIIQQEY [NLDIIQQEY (SEQ ID NO: 425)] | > 75
TTDFPSESSFEY [TTDFPSESSFEY (SEQ ID NO: 443)] | > 75
NLDAVHDITVAY [NLDAVHDITVAY (SEQ ID NO: 423)] | > 75
QIDTGENLY [QIDTGENLY (SEQ ID NO: 433)] | > 75
LTELLERAAFY [LTELLERAAFY (SEQ ID NO: 421)] | > 75
MIDVTKSYY [MIDVTKSYY (SEQ ID NO: 422)] | > 75
ILDEVIMGY [ILDEVIMGY (SEQ ID NO: 412)] | > 75
NSELSCQLY [NSELSCQLY (SEQ ID NO: 428)] | > 75
NTSDMMGRMSY [NTSDMMGRMSY (SEQ ID NO: 431)] | > 75
TLDSALNAASYY [TLDSALNAASYY (SEQ ID NO: 441)] | > 75
ISDRYYTALY [ISDRYYTALY (SEQ ID NO: 413)] | > 75
GSDHQSPSSSSY [GSDHQSPSSSSY (SEQ ID NO: 410)] | > 75
TSDFSRFTNY [TSDFSRFTNY (SEQ ID NO: 442)] | > 75
